According to article PMC4541365, “Alpha-ring Independent Assembly of the 20S Proteasome” (Scientific Reports, 2015):

Biological target: the molecule itself
Assay: native gel or EMSA; ICAR-purified α-his subunits alone (10 or 20 μg) on nondenaturing 4–15% or 5–10% gradient gels, 55 V, 4 °C; self-assembly into single and double α-rings

B1: Methanococcus maripaludis S2 20S proteasome α subunit, C-terminally hexahistidine-tagged, wild type (natural protein, UniProt Q6M0L9 1-259, looked up)
chain: MQQMVPASGYDRAITIFSPEGRLYQVEYAREAVRRGTTAVGIKCKDGVVLAVDRRITSKLIDVSSIEKIFQIDDHIVAATSGLVADARVLIDRARIEAQMNRVSYGEAITVEALAKKICDIKQAYTQHGGARPFGLALLITGIDRHSARLFETDPSGALIEYKATAIGSGRPIAMEVLESKYDENMTVSEGMELALYALSKTTEELKPENIDMAIIKDSGKLVEKISVDEIEKIVKAVYEKVKAEEEEAEKNKGEEDSE
notes: Proteasome subunit alpha of Methanococcus maripaludis S2, cloned by PCR from genomic DNA; expected Mr of α-his 29.5 kDa; Exists as single rings (SR), double rings (DR) and non-ring species; also called α-his; WT α; source: also Sephacryl S-300 fractions; also in lysate (lysate mixing) or coexpressed with β subunits; not shown: His6, C-terminal, kept
  binding result: binds
